Measurements reported in the nanobody polyreactivity screen of Harvey et al. (2022).

Assay: yeast display, Sf9 membrane polyspecificity reagent, FACS + sequencing; frameworks hold sequencing errors
How it was run: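 Synthetic nanobody libraries on Saccharomyces cerevisiae BJ5465 were galactose-induced for 36–48 hours, stained 1 hour at 4 °C with 10% biotinylated, detergent-solubilized Sf9 membrane reagent and enriched on streptavidin microbeads. FACS then separated cells into low and high (top ~1%) gates by anti-HA (expression) and streptavidin (reagent binding) fluorescence. Genes were colony-PCR amplified, MiSeq 2 × 250 sequenced and CDR-length filtered. A clone's polyreactivity label is that of its gate of origin.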
In the case of “QVQLVETGGGLVQAGGSLRLSCAASGFTFEGYAMGWYRQAPGKERELVAAINGSGGSTYYADSVKGRFTISRDNAKNTVYLQMNSLKPEDTAVYYCAKTDAFYRGYGYWGQGTQVTVSS”, the “polyreactivity (PSR sort gate)” value is reported as “low polyreactivity”.
For “QVQLVETGGGLVQAGGSLRLSCAASGFTFPNAMGWYRQAPGKERELVATISSSGGSTYYADSVKGRFTISRDNAKNTVYLQMNSLKPEDTEVYYCAASTRQYWIYRAYRDEYWGQGTQVTVSS”, the “polyreactivity (PSR sort gate)” value was “low polyreactivity”.
For “QVQLVETGGGLVQAGGSLRLSCAASGFTFTSYAMGWYRQAPGKERELVARITSSTGSTYYADSVKGRFTISRDNAKNTVDLQMNSMKPEDTAVYYCNARRQRNKSYNYWGQGTEVTVSS”, the “polyreactivity (PSR sort gate)” value was “high polyreactivity”.
In the case of “QVQLVETGGGLVQAGGSLRLSCAASGGIFYPNDMGWYRQAPGKEREFVAAITSSSGSTYADSVKGRFTISRDNAKNTVYLQMNSLKPEDTAVYYCATPPDDKGGGYLGYDYWGQGTQVTVSS”, the “polyreactivity (PSR sort gate)” value is reported as “low polyreactivity”.
For “QVQLVETGGGLVQAGGSLRLSCAASGITFRGYAMGWYRQAPGKERELVAAISGSGGTTYYADSVKGRFTISRDNAKNTVYLQMNSLKPEDTAVYYCNAKAVRGRYVWYDYWGQGTQVTVSS”, the “polyreactivity (PSR sort gate)” value was “high polyreactivity”.
For “QVQLVETGGGLVQAGGSLRLSCAASGLSFGRNAIGSYRQAPGKERELVAAISRSGGRTSYADSVKGRFTISRDTAKNTVYLQMNSLKPEDTAVYYCAARSDVYTHDYWGQATQVTVSS”, the “polyreactivity (PSR sort gate)” value was “high polyreactivity”.
For “QVQLVETGGGLVQAGGSLRLSCAASGRIFGYYTMGWYRPAPGKERELVADSSGGNTSYADSVKGRFTISRDNAKNTVYLQMNSLKPEDTAVYYCAKDLPGAWRGDDYWGQGTLVTVSS”, the “polyreactivity (PSR sort gate)” value was “low polyreactivity”.
With “QVQLVETGGGLVQAGGSLRLSCAASGRIFLKYAMGWYRQAPGKERELVAAISRRGASTYYADSVKGRFTISRDNAKNTVYLQMNSLKPEDTAVYYCNARTSSGMDYWGQGTQVTVSS” the “polyreactivity (PSR sort gate)” value was “high polyreactivity”.
In the case of “QVQLVETGGGLVQAGGSLRLSCAASGRIFRTNAMGWYRQAPGKEREFVAAISKDGGRTYYADSVKGRFTISRDNAKNTVYLQMNSLKPEDTAVYYCNARHRYYRYGYWGQGTQVTVSS”, the “polyreactivity (PSR sort gate)” value is reported as “high polyreactivity”.
For “QVQLVETGGGLVQAGGSLRLSCAASGRTFGYYTMGCYRQAPGKERELVAGISSAGSTNYADSVKGRFTISRDNAKNTVYLQMNSLKPADTAVYYCAARTYKVIQNNSWETYYYWGQGTQVTVSS”, the “polyreactivity (PSR sort gate)” value was “high polyreactivity”.
In the case of “QVQLVETGGGLVQAGGSLRLSCAASGRTFHRYAVGWYRQAPGKVRELVAAISFSGGSTYYADSVKGRFTISRDNAKNTVYLQMNSLKPEDTAVYYCAPRAVWSSWGRRYDSWGEGTQVTVSS”, the “polyreactivity (PSR sort gate)” value is reported as “high polyreactivity”.
For “QVQLVETGGGLVQAGGSLRLSCAASGRTFTGNAMGWYRQEPGKERELVADISSDGSTNYADSVKGRFTISRDNAKNTVYLQMNSLKPEDTAVYYCAADPFWTYYIDYDYWGQGTQVTVSS”, the “polyreactivity (PSR sort gate)” value was “low polyreactivity”.
For “QVQLVETGGGLVQAGGSLRLSCAASGRTIGFYAMGWYRQAPGKERELVAAINRSGDSTYYADSVKGRFTISRDNAKNTVYLHMNSLKPEDTAVYYCAARRSTGYGYWGQGTQVTVSS”, the “polyreactivity (PSR sort gate)” value was “high polyreactivity”.
With “QVQLVETGGGLVQAGGSLRLSCAASGSIFGPYAMAWYRQAPGKERELVAVISRSGGSTYYADSVKGRFTISRDNAKNTVYLQMNSLKPEDTAVYYCAAYRGPRADYYWGQGTQVTVSS” the “polyreactivity (PSR sort gate)” value was “high polyreactivity”.
In the case of “QVQLVETGGGLVQAGGSLRLSCAASGSIFHYYAKGWYRQAPGKERELVAAISWSGVTTYYADSVKGRFTISRDNAKNTVYLQMNSLKPEDTAVYYCAADSWRYPYYYWGQGTQVNVSS”, the “polyreactivity (PSR sort gate)” value is reported as “high polyreactivity”.
With “QVQLVETGGGLVQAGGSLRLSCAASGSIFLVYAMGWNRPAPGKQRQVVAAIRWSGGSTYYADSVKGRFTISRDNAKKTVYLQMNSLKPEDTAVYYCNAGESYSVKGGPYDSDYWGQGTQVTVSS” the “polyreactivity (PSR sort gate)” value was “low polyreactivity”.
In the case of “QVQLVETGGGLVQAGGSLRLSCAASGSIFTKYAMGRYRQAPGKERELVAAISWSGVSTYYADSVKGRFTISRDNAKNTVYLLMNSLKPEDTAVYYCNTRRYRSYGTTRYCFWGQGTQVTVSS”, the “polyreactivity (PSR sort gate)” value is reported as “high polyreactivity”.
For “QVQLVETGGGLVQAGGSLRLSCAASGSIFYAYAMGWYRQAPGKERELVATITSGGSTNYADSVKGRFTISRDNAKNTVYLQMNSLKPEDTAVYYCAVDISYSLGGGFGYDYWGQGTQVTVSS”, the “polyreactivity (PSR sort gate)” value was “low polyreactivity”.
In the case of “QVQLVETGGGLVQAGGSLRLSCAASGSTFAKYVMGWYRPAPGKERELVAAISRRGSSTYYADSEKGRFTISRDYAKNTVYLQMNSLKPEDTAVYYCAARFRYSGFEGMDYWGQGNQVTVSS”, the “polyreactivity (PSR sort gate)” value is reported as “high polyreactivity”.
With “QVQLVETGGGLVQAGGSLRLSCAASGSTFDYNAMGWYRQAPGKERELVASITESGDSTYYADSVKGRFTISRDNAKNTVYLQMNSLKPEDTAVYYCAATQVHWVYVVYYEYEYWGQGTQVTVSS” the “polyreactivity (PSR sort gate)” value was “low polyreactivity”.
In the case of “QVQLVETGGGLVQAGGSLRLSCAASGSTFEYNAMGWYRQAPGKERALVAGISSGGSTYYADSVKGRFTISRDNAKNTVYLQMNSLKPEDTAVYYCATSEASFATWDRYTELDYWGQGTQVTVSS”, the “polyreactivity (PSR sort gate)” value is reported as “low polyreactivity”.
For “QVQLVETGGGLVQAGGSLRLSCAASGSTFGGYAMGWYRQAPGKERELVATITGGGSTNYADSVKGRFTISRDNAKNTVYLQMNSLKPEDSAVYYCAKVRTGQSRSVGYDYWGQGTQVTVSS”, the “polyreactivity (PSR sort gate)” value was “low polyreactivity”.
For “QVQLVETGGGLVQAGGSLRLSCAASGSTFKGYAMGWYRQSPGKERELVAAISRSGTRTYYADSVKGRFTISRDNAKNTVYLQMNSLKPEDTAVSFCNKDTGYIAHDNENGRDYWGQGTQVTVSS”, the “polyreactivity (PSR sort gate)” value was “low polyreactivity”.
With “QVQLVETGGGLVQAGGSLRLSCAASGSTFRFYVMGWYRQAPGKERELVAAISTSGGSTYYADSVKGRFTISRDTAKNTVYLQMNSLKPEDTAVYYCAADLIASLRPYYQYDYWGQGTQVTVSS” the “polyreactivity (PSR sort gate)” value was “low polyreactivity”.
In the case of “QVQLVETGGGLVQAGGSLRLSCAASGSTFTRYGMGWYRQAPGKERELVADITTSGSSTYYADSVKGRFTISRDNAKNTVYLQMNSLKPEDTAVYYCAADWSSWGFDYWGQGTQVTVSS”, the “polyreactivity (PSR sort gate)” value is reported as “low polyreactivity”.
With “QVQLVETGGGLVQAGGSLRLSCAASGSTFYKYGMGWYRPAPGKERELVAAISGSGDSTYYADSVKGRFTISRDNAKNTVYLQMNSLKPEDTAVSYCNAGPWWFLHEYDYWGQGTQVTVSS” the “polyreactivity (PSR sort gate)” value was “low polyreactivity”.
In the case of “QVQLVETGGGLVQAGGSLRLSCAASGTFHWYAMGWYRPAPGKERELVAAITGSGGNTYYADSVKGRFTISRDNAKNTVYLQMNSLKPEDTAVYYCAARIYTWSVQYTGYGYWGQGTQVTVSS”, the “polyreactivity (PSR sort gate)” value is reported as “high polyreactivity”.
For “QVQLVETGGGLVQAGGSLRLSCAASGYIFYVYAMGWYRQPPGKERELVAAINSGDITYYADSVKGRFTISRDNAKNTVYLQMNRLKPEDTAVYFGATVLILIYDYWGQGTQVTVSS”, the “polyreactivity (PSR sort gate)” value was “low polyreactivity”.
In the case of “QVQLVETGGGLVQAGGSLRLSCAASVFTFPTYTMGWYRQAPGKEREFVARITKRGGSTYYADSVKGRFTISRVNVKNTVYLQRKCVKPEDTAVYYCDAGFWWSSYGYWGQGSQVTVSS”, the “polyreactivity (PSR sort gate)” value is reported as “high polyreactivity”.
In the case of “QVQLVETGGGLVQAGGSLRLSCAGSVSIFNRNAMGWYRQAPGKERELVAAISNSGARTYYADSVKGRFTISRDNAKNTVYLQMNSLKPEDTAVYYCTAVRRRSKLYNYWGQGTQVTVSS”, the “polyreactivity (PSR sort gate)” value is reported as “high polyreactivity”.
With “QVQLVETGGGLVQAGGSLRLSCAHSGSIFASNAMGWYRHAPGKEREFVAAIRYSGGITYYADSVKGRFTISRDNAKNTVYLQMTSLKPEDTAVYYCAAYGWGNRWYSRFDYWGQGTQVTVSS” the “polyreactivity (PSR sort gate)” value was “high polyreactivity”.
For “QVQLVETGGGLVQAGGSLRLSCAPSGRIFGIYAMGWYRQAPGKERELVASITDGTITNYADSVKGRFTISRDNAKNTVYLQMNSLKPVDTAVYYFAAGTQAHAYVVRPIEMDYWGQGTQVTVSS”, the “polyreactivity (PSR sort gate)” value was “low polyreactivity”.
For “QVQLVETGGGLVQAGGSLRLSCAPSGSTFYYYVMGWYRPPPGNERELVAAINSGGSTYYADSVKGRFTISRDNAKNTVYLQMNSLKPEDTAVYYCAKSWSYWYQYFYWGQGTQVTVSS”, the “polyreactivity (PSR sort gate)” value was “low polyreactivity”.
For “QVQLVETGGGLVQAGGSLRLSCEASGTIFTYAMGWYRQAPRKERELVAVISWSGASTYYADSVKGRLTISRDNAKNSVYLQMNSLKTEDTAVYYCAVYRYYKLVHLYGFDYWGQGTQVTVSS”, the “polyreactivity (PSR sort gate)” value was “high polyreactivity”.
In the case of “QVQLVETGGGLVQAGGSLRLSSAASGIIFKTYAMGWYRQARGKERELLAGIDYSGGGTSYADSVKGRFTISRDNAKNTVYLQMNSLKPEDTAVYYCNAEWWSWGSDSYTYDYPETYDYRGQGTQVTVSS”, the “polyreactivity (PSR sort gate)” value is reported as “low polyreactivity”.
With “QVQLVETGGGLVQAGGSLSLSCAASGRTFGRYAMGWYRQAPGKERELVAAITWSGGSTYYADSVKGRFTISRDNAKNTVYLQMNSLKPEDTAVYYCAASGYPIYHDDYWGQGTQVTVSS” the “polyreactivity (PSR sort gate)” value was “low polyreactivity”.
For “QVQLVETGGGLVQAGGTLRLAVLPPDLPSTLNDMGWYRQATGKERELVAAITRGGSTNYADSVKGRFTISRDNAKNTVYLLMNSLKPEDTAVYYCAARSAGWRDGGDYWGQGTQVTVSS”, the “polyreactivity (PSR sort gate)” value was “low polyreactivity”.
In the case of “QVQLVETGGGLVQAGGTLRLSCAPSGLIVDLYAMGCYRQAPGKERELVATISGSGGSTYYADSEKGRFTISRDNAKNTVYLQMNSLKPEDTAFYYCAAVSVSSWYDDCGQGTQVTVSS”, the “polyreactivity (PSR sort gate)” value is reported as “low polyreactivity”.
In the case of “QVQLVETGGGLVQAGGTLRLSCAPSGRIFPYNDMGLYRQAPGKERELVAANSSGGTTDYADSVKGRFTISRDNAKNTVYLQMNSLKPEDTAVYYCAATYVYWTWGYDYWGQGTQVTVSS”, the “polyreactivity (PSR sort gate)” value is reported as “low polyreactivity”.
With “QVQLVETGGRLGQAGGSLRLSCAASGRTFGYNAMGWYRQAPGKERELVAAISWSGTRTYYADSVKWRFTISRDNAKNTVYLQRNSLKPEDTAVYYCAARIAVYGGSYGWFDYWGQGTQVTVSS” the “polyreactivity (PSR sort gate)” value was “high polyreactivity”.
With “QVQLVETGGVLVQAGGSLRLSCAASGRIFPPNAMGWSRQAPGKEREFVASINRSGGRTYYADSVKGRFTISRDNAKNTVYLQMNSLKPEDTAVYYCAATGGYSCPLGVSWKYEYWGQGNQVTVSS” the “polyreactivity (PSR sort gate)” value was “low polyreactivity”.
